Read-outs that look alike come from different tables or passages of the source.
Key:
Q98I = assay: SPR; 25 C
F82T = assay: SPR; 25 C
Q98K = assay: SPR; 25 C
L38Q = assay: SPR; 25 C
N35F = assay: SPR; 25 C
L38R = assay: SPR; 25 C
N35E = assay: SPR; 25 C
N35Q = assay: SPR; 25 C
Q98V = assay: SPR; 25 C
Q98L = assay: SPR; 25 C
L79W = assay: SPR; 25 C
Q98R = assay: SPR; 25 C
ActRIIB-G1Fc [1] = assay: SPR; 25 C
L38D = assay: SPR; 25 C
Q98A = assay: SPR; 25 C
ActRIIB V99G [2] = assay: SPR; 37 C
ActRIIB L38N/L79R [3] = assay: SPR; 37 C
ActRIIB E50L [4] = assay: SPR; 37 C
ActRIIB F82T [5] = assay: SPR; 37 C
ActRIIB-G1Fc [6] = assay: SPR; 37 C
K55E = assay: SPR; 37 C
K55A/F82I = assay: SPR; 37 C
F82I = assay: SPR; 37 C
L79K = assay: SPR; 37 C
K74A = assay: SPR; 37 C
L79K/F82K = assay: SPR; 37 C
F82K = assay: SPR; 37 C
K55A = assay: SPR; 37 C
ActRIIB F82T [7] = assay: SPR; 37 C; transient
ActRIIB-G1Fc [8] = assay: SPR; 37 C; remark: listed apart in the source
ActRIIB L38N/L79R [9] = assay: SPR; 37 C; remark: listed apart in the source
ActRIIB E50L [10] = assay: SPR; 37 C; remark: listed apart in the source
ActRIIB F82T [11] = assay: SPR; 37 C; remark: listed apart in the source
ActRIIB-G1Fc [12] = assay: SPR; 37 C; remark: listed apart in the source
ActRIIB V99G [13] = assay: SPR; 37 C; remark: listed apart in the source

Row | Binder | Kd (Q98I) [nM] | Kd (F82T) [nM] | Kd (Q98K) [nM] | Kd (L38Q) [nM] | Kd (N35F) [nM] | Kd (L38R) [nM] | Kd (N35E) [nM] | Kd (Q98V) [nM] | Kd (Q98L) [nM] | Kd (L79W) [nM] | Kd (Q98R) [nM] | Kd (ActRIIB-G1Fc [1]) [nM] | Kd (L38D) [nM] | Kd (Q98A) [nM] | Kd (K55E) [nM] | Kd (K55A/F82I) [nM] | Kd (F82I) [nM] | Kd (L79K) [nM] | Kd (K74A) [nM] | Kd (K55A) [nM] | also measured
1 | BMP9 (ligand) SAGAGSHCQKTSLRVNFEDIGWDSWIIAPKEYEAYECKGGCFFPLADDVTPTKHAIVQTLVHLKFPTKVGKACCVPTKLSPISVLYKDDMGVPTLKYHYEGMSVAECGCR | 0.059 | 0.082 | 0.069 | 0.033 |  | 0.05 |  | 0.047 | 0.071 | 0.11 | 0.074 | 0.059 | 0.063 | 0.043 | 0.27 | 0.134 | 0.275 | 1.1 | 0.36 | 0.142 | Kd (ActRIIB L38N/L79R [3]): 2.13 nM; Kd (ActRIIB E50L [4]): 0.103 nM; Kd (ActRIIB-G1Fc [6]): 0.0911 nM; Kd (ActRIIB F82T [7]): 6.17 nM; Kd (ActRIIB-G1Fc [8]): 0.037 nM
2 | Activin A (ligand) GLECDGKVNICCKKQFFVSFKDIGWNDWIIAPSGYHANYCEGECPSHIAGTSGSSLSFHSTVINHYRMRGHSPFANLKSCCVPTKLRPMSMLYYDDGQNIIKKDIQNMIVEECGCS | 0.157 |  | 0.145 | 0.2 | 0.29 | 0.23 | 0.8 | 0.16 | 0.22 | 0.26 | 0.3 | 0.25 | 0.23 | 0.155 | 0.064 | 0.047 | 0.078 | 0.13 | 0.034 | 0.046 | Kd (ActRIIB L38N/L79R [9]): 0.339 nM; Kd (ActRIIB E50L [10]): 0.0456 nM; Kd (ActRIIB F82T [11]): 0.0109 nM; Kd (ActRIIB-G1Fc [12]): 0.0146 nM; Kd (N35Q): 0.32 nM; Kd (L79K/F82K): 0.64 nM; Kd (F82K): 0.093 nM; Kd (ActRIIB-G1Fc [8]): 0.047 nM
3 | Activin B (ligand) GLECDGRTNLCCRQQFFIDFRLIGWNDWIIAPTGYYGNYCEGSCPAYLAGVPGSASSFHTAVVNQYRMRGLNPGTVNSCCIPTKLSTMSMLYFDDEYNIVKRDVPNMIVEECGCA |  |  |  |  |  |  |  |  |  |  |  |  |  |  |  |  |  |  |  |  | Kd (ActRIIB V99G [13]): 0.847 nM; Kd (ActRIIB L38N/L79R [9]): 0.0369 nM; Kd (ActRIIB E50L [10]): 0.159 nM; Kd (ActRIIB F82T [11]): 0.012 nM; Kd (ActRIIB-G1Fc [12]): 0.0085 nM

Now from value to binder, other results behind:

Row | Kd (Q98I) [nM] | Kd (F82T) [nM] | Kd (Q98K) [nM] | Kd (L38Q) [nM] | Kd (N35F) [nM] | Kd (L38R) [nM] | Kd (N35E) [nM] | Kd (Q98V) [nM] | Kd (Q98L) [nM] | Kd (L79W) [nM] | Kd (Q98R) [nM] | Kd (ActRIIB-G1Fc [1]) [nM] | Kd (L38D) [nM] | Kd (Q98A) [nM] | Kd (K55E) [nM] | Kd (K55A/F82I) [nM] | Kd (F82I) [nM] | Kd (L79K) [nM] | Kd (K74A) [nM] | Kd (K55A) [nM] | Binder | also measured
4 | 0.21 | 0.14 | 0.068 | 0.089 | 0.22 | 0.11 | 0.28 | 0.048 | 0.065 | 0.16 | 0.32 | 0.169 | 0.15 | 0.21 | 0.014 | 0.007 | 0.008 | 1.4 | 0.033 | 0.023 | BMP10 (ligand) NAKGNYCKRTPLYIDFKEIGWDSWIIAPPGYEAYECRGVCNYPLAEHLTPTKHAIIQALVHLKNSQKASKACCVPTKLEPISILYLDKGVVTYKFKYEGMAVSECGCR | Kd (N35Q): 0.27 nM; Kd (ActRIIB V99G [2]): 0.951 nM; Kd (ActRIIB L38N/L79R [3]): 0.293 nM; Kd (ActRIIB E50L [4]): 0.163 nM; Kd (ActRIIB F82T [5]): 0.0092 nM; Kd (ActRIIB-G1Fc [6]): 0.0409 nM; Kd (L79K/F82K): 0.068 nM; Kd (F82K): 0.008 nM
5 | 0.049 | 0.018 | 0.037 | 0.021 | 0.017 | 0.007 | 0.028 | 0.033 | 0.043 | 0.044 | 0.02 | 0.011 | 0.03 | 0.037 | 0.052 | 0.09 | 0.01 | 0.14 | 0.43 | 0.026 | GDF11 (ligand) NLGLDCDEHSSESRCCRYPLTVDFEAFGWDWIIAPKRYKANYCSGQCEYMFMQKYPHTHLVQQANPRGSAGPCCTPTKMSPINMLYFNDKQQIIYGKIPGMVVDRCGCS | Kd (N35Q): 0.02 nM; Kd (ActRIIB V99G [2]): 0.184 nM; Kd (ActRIIB L38N/L79R [3]): 0.0886 nM; Kd (ActRIIB E50L [4]): 0.187 nM; Kd (ActRIIB F82T [5]): 0.0267 nM; Kd (ActRIIB-G1Fc [6]): 0.01 nM; Kd (L79K/F82K): 1.6 nM; Kd (F82K): 0.057 nM; Kd (ActRIIB-G1Fc [8]): 0.012 nM
